In article PMC10769870, “Bdellovibrio bacteriovorus uses chimeric fibre proteins to recognize and invade a broad range of bacterial hosts” (Nature Microbiology, 2024):

What was measured:
[1] = target: the molecule itself; test: crystal structure; Bd2133_(910–1,031), Morpheus A4, spacegroup P2_12_12_1, 1 Å
[2] = target: the molecule itself; test: crystal structure; Bd1334_(914–1,151), PACT B9, spacegroup R3, 1.4 Å
[3] = target: the molecule itself; test: crystal structure; Bd1334_(818–1,151), Morpheus C1, spacegroup C2, 2.6 Å
[4] = target: the molecule itself; test: crystal structure; Bd3182_(632–922) crystallised by vapour diffusion at 18 °C in three forms (Morpheus C1, P2_1; Morpheus G12, I2; Proplex E3, another P2_1); the 1.1 Å form is described
[5] = target: the molecule itself; test: crystal structure; Bd2439_(837–1,107), PACT H3 (P2_122_1) and MIDASplus E9 (P4); with ethylene glycol (1.6 Å) or GlcNAc–MurNAc (1.84 Å)
[6] = target: the molecule itself; test: crystal structure; Bd2734_(691–843), JCSG+ A3, spacegroup P2_1, 1.8 Å
[7] = target: the molecule itself; test: crystal structure; Bd2133_(662–1,031), native and selenomethionine-labelled, Morpheus B3, spacegroup P6_322, 2.5 Å
[8] = target: the molecule itself; test: crystal structure; Bd2740_(518–627), MIDAS F1, spacegroup P2_12_12_1, 2.6 Å

B1: Bd2133_(910–1,031), tip-only variant of Bd2133 (domain or fragment, Bdellovibrio bacteriovorus HD100, UniProt Q6ML84 910-1031, looked up)
chain: AATWTSLGLTSLGAVSMTTTTEQSFTLPVAAQTASQILVYLRCHSGNASTTGADDIRIYTKEGAATYDHYLLMFPYAGQGAVGYNSDSFWLPKTSDNKIYLAHSMAPGSANSGCNFYITGYK
notes: Bd2133 of Bdellovibrio bacteriovorus HD100, β-sandwich tip domain, A910 to the C-terminus (1031); Made by deletion from the plasmid of Bd2133_(662–1,031); also called tip-only variant (A910 onwards); source: E. coli BL21 RIPL (DE3), purified (Ni-NTA, TEV, Ni-NTA, Superdex 200)
binding result [1]: binds

B2: Bd1334_(914–1,151) (domain or fragment, Bdellovibrio bacteriovorus HD100, UniProt Q6MNC5 914-1151, looked up)
chain: SAGTLAAPTAVTSGQSLTSLTAFAYNGTQYQSGGNASINFVATEAHTASAGGAKIIFNTTNNGATGSTEKVVIDQNGNVGVGVGAPTAKMDVNGGIKQPNYGIISAVRNSGGVTASMPWTNAYVLAHQGEMHQWVAGGPILQDSVTGCNAGPDAGVKFDSIATSWGGPYKVIFHTTGSNGAIHLEWSGWQVSLKNSAGTELAIGMGQVFATLHYDPAVSNWRVEHMFGRINNTNFTCW
notes: Bd1334 of Bdellovibrio bacteriovorus HD100, S914 to the C-terminus (W1151); also called Bd1334 from S914 onwards; source: E. coli BL21 RIPL (DE3), purified (Ni-NTA, TEV, Ni-NTA, Superdex 200)
stoichiometry N [2]: 3

B3: Bd1334_(818–1,151), tip of the NS74 MAT fibre protein Bd1334 (domain or fragment, Bdellovibrio bacteriovorus HD100, UniProt Q6MNC5 818-1151, looked up)
chain: SSAETDFATAVNGNLRFYTAAAGTDSERMRITGSGLVGIGTPAPAVPLQVATRVPSSAVHPNRAGIQAVGEGTDVGGRISALVSSTIEMATFSGYQSAGTLAAPTAVTSGQSLTSLTAFAYNGTQYQSGGNASINFVATEAHTASAGGAKIIFNTTNNGATGSTEKVVIDQNGNVGVGVGAPTAKMDVNGGIKQPNYGIISAVRNSGGVTASMPWTNAYVLAHQGEMHQWVAGGPILQDSVTGCNAGPDAGVKFDSIATSWGGPYKVIFHTTGSNGAIHLEWSGWQVSLKNSAGTELAIGMGQVFATLHYDPAVSNWRVEHMFGRINNTNFTCW
notes: Bd1334 of Bdellovibrio bacteriovorus HD100, S818 to the C-terminus (W1151); The cloning paragraph prints this construct as Bd1334_(818–1,031); everywhere else it is 818–1,151; source: E. coli BL21 RIPL (DE3), purified (Ni-NTA, TEV, Ni-NTA, Superdex 200)
stoichiometry N [3]: 3

B4: Bd3182_(632–782), mature tip region of the MAT (mosaic adhesive trimer) fibre protein Bd3182 (domain or fragment, Bdellovibrio bacteriovorus HD100, UniProt Q6MIH5 632-782, looked up)
chain: GTNDAFSLSFETNNTPRMTIDDVGRVGVGTTAPTSALHVIGTGEVARFVTSATGGVVIDSTALNYNPSLIYRKTNINRWSMMVNAASETGGNAGSNLSILRYDDTGATLGAAVTIDRASGFFGINTAAPAYNIHVTGTAGLSTGSAWTVAS
notes: Bd3182 of Bdellovibrio bacteriovorus HD100, S74-group MAT fibre protein; expressed as residues 632-922, the S74 chaperone/protease domain cuts itself off at catalytic residue S782; the fibre part, labelled 632-782, was crystallised; the model traces P647 to A781; The methods name the cloned construct once as 668-922 and elsewhere as 632-922; also called Bd3182_(632–922) (construct before …)
stoichiometry N [4]: 3

B5: Bd2439_(837–1,107), tip of the NS74 MAT fibre protein Bd2439 (domain or fragment, Bdellovibrio bacteriovorus HD100, UniProt Q6MKF5 837-1107, looked up)
chain: GGLDIVNNATGDDNRDDLNIRTYGATETSSLIMLRARGTASAPAAVQTGDRLGGVLFRGWNGTAWMGSGQILSVAEENFTTAVKTNLQFHVGGAGEAMRISNTGNVGIGTTTTTEKLNVQGNVAVSGEITSVRSWGIKRGPTSFSANYINVWNSGYHVGSSIDCTTSTTGCRILKAGTYEIRCVQRAGTSGNSVYVGIALNGDRTALESRNDVLWNHSHTAYSGSYTESNFMGTLSANDLITCGAPVNTMAADLVYAVPAYNGTMQIKRVD
notes: Bd2439 of Bdellovibrio bacteriovorus HD100, G837-D1107 (β-helix N850-V968, R969 linker, TNF-like tip S970-D1107); pET26b construct; source: E. coli BL21 RIPL (DE3), purified (Ni-NTA, Superdex 200)
stoichiometry N [5]: 3

B6: Bd2734_(691–843), tip-only variant of the NS74 MAT fibre protein Bd2734 (domain or fragment, Bdellovibrio bacteriovorus HD100, UniProt Q6MJN8 691-843, looked up)
chain: TSTLMGSLTMLGKAGCQWEHANTSFASFSNVVACNTATVTGLASAPTEGKIPGIRFANLPAGDYELTVLIFSMYPVDAGVYCRYRLWDGTNFSGMAGAYESEIYQMTGLFSYATDQTNLTFYVQAQTLTATKNCRADITVPGQDKMQIYLKKL
notes: Bd2734 of Bdellovibrio bacteriovorus HD100 (843 aa), TNF-like tip, T691-L843; pET26b construct; The count of three copies rests on the discussion's word that trimerization is invariant in the six solved MATs; source: E. coli BL21 RIPL (DE3), purified (Ni-NTA, Superdex 200)
binding result [6]: binds

B7: Bd2133_(662–1,031), tip of the NS74 MAT fibre protein Bd2133 (domain or fragment, Bdellovibrio bacteriovorus HD100, UniProt Q6ML84 662-1031, looked up)
chain: NSSGALGLSTSGSERMRIDTSGNLGLGTAAPTSALHVERTQDADTTVQVRNTHDTGTAAGARFIASNEKSGIWFGISGTSNTNTGLGSPGDAYIYNAAGTATGKNLNVINNQTGNIHFFAGSTATGTPRMTITNTGLVGINTAAPLQKLHVENGNMVITGTAPAYQLKENDTTDQNWQMGINNGNLRFATQNDALNSSSDKVVISQAGNVGIGATAPTAKLEVAGTIHSTSGGIKFPDGSVQTTAASGAATWTSLGLTSLGAVSMTTTTEQSFTLPVAAQTASQILVYLRCHSGNASTTGADDIRIYTKEGAATYDHYLLMFPYAGQGAVGYNSDSFWLPKTSDNKIYLAHSMAPGSANSGCNFYITGYK
notes: Bd2133 of Bdellovibrio bacteriovorus HD100, N662 to the C-terminus (K1031); A selenomethionine-labelled form was also crystallised for phasing; source: E. coli BL21 RIPL (DE3), purified (Ni-NTA, TEV, Ni-NTA, Superdex 200)
stoichiometry N [7]: 3

B8: Bd2740_(518–627), tip of the NS74 MAT fibre protein Bd2740 (domain or fragment, Bdellovibrio bacteriovorus HD100, UniProt Q6MJN2 518-627, looked up)
chain: APCDSGWTLINKGDPFCAKQQSVTGTNFATSMTQCLNNGGKLCDLQEAVGMCQTGFIPSNTTLWISQLADNSSAHVINCTSGSWSAGFYGFGVTVDGSNPILPYCCKGRR
notes: Bd2740 of Bdellovibrio bacteriovorus HD100 (627 aa), C-type lectin fold tip, residues 518-627 (the results print 517-626); Synthesised gene in pET29a; an Ala-Ser linker follows the hexa-His tag; source: E. coli BL21 RIPL (DE3), purified (Ni-NTA, Superdex 200)
stoichiometry N [8]: 3
